Measurements as given in article PMC11775523.

System: Exo1 (exonuclease)
Test: ITC
Conditions: ITC: 67 mM glycine-KOH, 6.7 mM MgCl2, 1 mM TCEP, 37 C (Methods: 100 uM aptamer into 10 uM Exo1; Results text: 10 uM into 1 uM). Cells: Dulbecco's PBS, 5 mM …

| Sequence | Kd | Kd (5'-terminal GalNAc-modified base (N1, printed X), position 12 is also printed X, but the text describes only 5' modification, so likely a misprint for T) |
| --- | --- | --- |
| ATCTAACTGCTGCGCCGCCGGGAAAATACTGTACGGTTAGA [Sgc8 (S01)] | 0.001 µM | – |
| NATCTAACTGCNGCGCCGCCGGGAAAATACTGTACGGTTAGAT [GS01 (5' GalN-Sgc8)] | – | 662 µM |
